Residue numbers refer to the chain shown, from its start. Non-standard residues stand in square brackets, D forms with d. Groups on a side chain read outwards from the residue. Primed or numbered codes have the meaning given here. No end group written: not given here. *: point of attachment. C20 diacid = O=C(O)CCCCCCCCCCCCCCCCCCC(=O)*; Iva = CC[C@](C)(N)C(=O)O; Aib = CC(C)(N)C(=O)O
Columns and labels:
[1] = target: T1, human GIPR (human), P48546; assay: [125I]GIP competition, human GIPR VLP
T1 chain: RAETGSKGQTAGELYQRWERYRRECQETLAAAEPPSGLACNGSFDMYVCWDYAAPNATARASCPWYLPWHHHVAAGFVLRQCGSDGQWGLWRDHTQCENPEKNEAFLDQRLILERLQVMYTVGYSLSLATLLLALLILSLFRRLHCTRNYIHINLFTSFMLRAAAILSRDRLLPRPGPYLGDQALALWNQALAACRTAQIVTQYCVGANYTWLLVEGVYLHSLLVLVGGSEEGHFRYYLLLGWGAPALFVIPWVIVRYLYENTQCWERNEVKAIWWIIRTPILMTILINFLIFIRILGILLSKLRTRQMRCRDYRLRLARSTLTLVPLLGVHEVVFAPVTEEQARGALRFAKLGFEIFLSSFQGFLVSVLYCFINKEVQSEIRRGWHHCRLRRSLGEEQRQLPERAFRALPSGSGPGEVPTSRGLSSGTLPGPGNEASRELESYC

[2] = target: T2, human GLP-1R (human), P43220
T2 chain: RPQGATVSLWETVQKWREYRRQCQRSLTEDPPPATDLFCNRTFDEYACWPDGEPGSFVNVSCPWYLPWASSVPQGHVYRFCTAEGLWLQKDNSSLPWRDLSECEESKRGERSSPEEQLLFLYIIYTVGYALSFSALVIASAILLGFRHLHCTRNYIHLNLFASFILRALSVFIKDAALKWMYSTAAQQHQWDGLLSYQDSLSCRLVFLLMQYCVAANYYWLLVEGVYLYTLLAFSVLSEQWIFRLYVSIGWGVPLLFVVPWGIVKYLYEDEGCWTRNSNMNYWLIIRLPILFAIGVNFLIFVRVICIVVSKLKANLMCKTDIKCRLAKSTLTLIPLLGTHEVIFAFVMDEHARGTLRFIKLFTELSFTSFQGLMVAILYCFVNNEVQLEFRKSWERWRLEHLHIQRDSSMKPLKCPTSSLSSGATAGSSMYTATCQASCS

[3] = target: T1, human GIPR (human), P48546
human GLP-1R [4] = target: human GLP-1R (human, UniProt P43220); assay: cell-based or functional assay
human GIPR [5] = target: T3, human GIPR (human, UniProt P48546); assay: cell-based or functional assay
T3 sequence: T1 chain

human GIPR [6] = target: T4, human GIPR (human, UniProt P48546); assay: [125I]GIP displacement, hGIPR VLP
T4 sequence: T1 chain
Protocol: (§1) For the measurement of the binding activity to GIPR, [¹²⁵I]GIP (PerkinElmer, Inc.) in a final concentration of 100 pM and a test compound in a specified concentration were mixed to GIPR_VLP in an assay buffer (50 mM HEPES (pH 7.4, WAKO 342-01375), 5 mM EGTA (WAKO 346-01312), 5 mM MgCl₂ (WAKO 136-03995), 0.1% BSA (Merckmillipore 81-066-04) and 0.005% Tween 20 (BioRad 170-6531)) and reacted at room temperature for 2 hours. VLP to which [¹²⁵I ]GIP was bound was trapped in a GF/C glass fiber filter 96-well plate (PerkinElmer 6005274) using a cell harvester and washed with an assay buffer. The GF/C glass fiber filter 96-well plate in which VLP was trapped was dried at 42° C. overnight. Thereafter, MicroScint-O (PerkinElmer 6013611) was added to the GF/C glass fiber filter 96-well plate sealed using a backseal and the plate was sealed using a topseal. The radioactivity of each well was eventually measured using Topcount (PerkinElmer) and the binding activity of the test compound to GIPR was calculated when the [¹²⁵I]GIP binding activity in the presence of GIP in a final concentration of […] was 100% and the [¹²⁵I]GIP binding activity of the wells to which DMSO was added was 0%.

human GIPR [7] = target: T5, human GIPR (human, UniProt P48546); assay: cell-based or functional assay; remark: listed apart in the source
T5 sequence: T1 chain

human GLP-1R [8] = target: human GLP-1R (human, UniProt P43220); assay: cell-based or functional assay; remark: listed apart in the source
human GIPR [9] = target: T6, human GIPR (human, UniProt P48546); assay: [125I]GIP competition, human GIPR VLP
T6 sequence: T1 chain
Protocol: as §1

## Y[Aib]EGTFISDYSIALDRK([PEG(2)-C20 diacid])AQQNFVNW[Iva]LAQRPSSGAPPPS (not fully specified (C-terminus); ends and bridges not checked) [Compound 408]
[1]
  IC50: 84 nM
[2]
  Agonist activity (EC50, M): > 1e-06 M
[3]
  Agonist activity (EC50, M): 4.8e-10 M

B1: Compound 30 (peptide)
peptide: Y[Aib]EGTVVSLYSI[Aib]LDRQAQ[Aib]EFVRWLLRGGPSSGAPPPSR-NH2
modifications: N-terminus assumed
SMILES: CC[C@H](C)[C@H](NC(=O)[C@H](CO)NC(=O)[C@H](Cc1ccc(O)cc1)NC(=O)[C@H](CC(C)C)NC(=O)[C@H](CO)NC(=O)[C@@H](NC(=O)[C@@H](NC(=O)[C@@H](NC(=O)CNC(=O)[C@H](CCC(=O)O)NC(=O)C(C)(C)NC(=O)[C@@H](N)Cc1ccc(O)cc1)[C@@H](C)O)C(C)C)C(C)C)C(=O)NC(C)(C)C(=O)N[C@@H](CC(C)C)C(=O)N[C@@H](CC(=O)O)C(=O)N[C@@H](CCCNC(=N)N)C(=O)N[C@@H](CCC(N)=O)C(=O)N[C@@H](C)C(=O)N[C@@H](CCC(N)=O)C(=O)NC(C)(C)C(=O)N[C@@H](CCC(=O)O)C(=O)N[C@@H](Cc1ccccc1)C(=O)N[C@H](C(=O)N[C@@H](CCCNC(=N)N)C(=O)N[C@@H](Cc1c[nH]c2ccccc12)C(=O)N[C@@H](CC(C)C)C(=O)N[C@@H](CC(C)C)C(=O)N[C@@H](CCCNC(=N)N)C(=O)NCC(=O)NCC(=O)N1CCC[C@H]1C(=O)N[C@@H](CO)C(=O)N[C@@H](CO)C(=O)NCC(=O)N[C@@H](C)C(=O)N1CCC[C@H]1C(=O)N1CCC[C@H]1C(=O)N1CCC[C@H]1C(=O)N[C@@H](CO)C(=O)N[C@@H](CCCNC(=N)N)C(N)=O)C(C)C
Human GLP-1R [4]
  Agonist activity (EC50, M): > 1e-06 M
Human GIPR [5]
  Agonist activity (EC50, M): 1e-11 M

## YAEGTVVSLYSIALDKQHQQEFVKWLLKGGPSSGAPPPSK [Compound 24, listing 1 of 2 here]
Human GIPR [6]
  IC50: 370 nM

## YAEGTVVSLYSIALYKIHQQEFVKWLLKGGPSSGAPPPSK [Compound 26, listing 1 of 2 here]
Human GIPR [6]
  IC50: 420 nM

## YAEGTVVSLYSIALDKQHQQEFVKWLLKGGPSSGAPPPSK [Compound 24, listing 2 of 2 here]
Human GLP-1R [4]
  Agonist activity (EC50, M): > 1e-06 M
Human GIPR [5]
  Agonist activity (EC50, M): 5.1e-09 M

## YAEGTVVSLYSIALDKIHQQEFVKWLLKGGPSSGAPPPSK [Compound 25, listing 1 of 2 here]
Human GLP-1R [4]
  Agonist activity (EC50, M): > 1e-06 M
Human GIPR [5]
  Agonist activity (EC50, M): 1.4e-09 M

## YAEGTVVSLYSIALYKIHQQEFVKWLLKGGPSSGAPPPSK [Compound 26, listing 2 of 2 here]
Human GLP-1R [4]
  Agonist activity (EC50, M): > 1e-06 M
Human GIPR [5]
  Agonist activity (EC50, M): 1.2e-08 M

## YAEGTVVSLYSIALDKIHQQEFVKWLLKGGPSSGAPPPSK [Compound 25, listing 2 of 2 here]
Human GIPR [6]
  IC50: 520 nM

B2: Compound 307 (peptide)
peptide: YXEGTXISDYSIXLDRXAQXNFVNWXLAQRPSSGAPPPS
modifications: not fully specified; MeTyr at 1; Aib at 2, 13, 20; Iva at 6, 26; Lys(Eda-PEG(3)-PEG(3)-) at 17; C-terminal amide (-NH2)
Human GIPR [7]
  Agonist activity (EC50, M): 4e-11 M
Human GLP-1R [8]
  Agonist activity (EC50, M): > 1e-06 M

B3: Compound 521 (peptide)
peptide: B2 peptide with L14X, A18H
modifications: N-terminal methyl (Me-Tyr); Aib at 2, 13, 17, 20; Iva at 6, 26; Lys(Eda-GGGGGG-) at 14; C-terminal NH2
Human GIPR [9]
  IC50: 20 nM

B4: Compound 349 (peptide)
peptide: B2 peptide
modifications: MeTyr at 1; Aib at 2, 13, 20; Iva at 6, 26; Lys(Oda-GGGGG-) at 17; C-terminal amide (-NH2)
Human GLP-1R [8]
  Agonist activity (EC50, M): > 1e-06 M

B5: Compound 307 (peptide)
peptide: B2 peptide
modifications: not fully specified; N-methyl on Tyr 1; Aib at 2, 13, 20; Iva at 6, 26; Lys(Eda-PEG(3)-PEG(3)-) at 17; C-terminal amide
Human GIPR [6]
  IC50: 5 nM

B6: Compound 341 (peptide)
peptide: B2 peptide with L14X
modifications: MeTyr at 1; Aib at 2, 13, 17, 20; Iva at 6, 26; Lys(Eda-GGGGG-) at 14; C-terminal amide (-NH2)
Human GLP-1R [8]
  Agonist activity (EC50, M): > 1e-06 M

B7: Compound 496 (peptide)
peptide: B2 peptide
modifications: N-terminal methyl (Me-Tyr); Aib at 2, 13, 20; Iva at 6, 26; Lys(Oda-GGGGGG-) at 17; C-terminal NH2
Human GIPR [9]
  IC50: 10 nM

B8: Compound 503 (peptide)
peptide: B2 peptide with A18H
modifications: N-terminal methyl (Me-Tyr); Aib at 2, 13, 20; Iva at 6, 26; Lys(Heda-GGGGGG-) at 17; C-terminal NH2
Human GIPR [9]
  IC50: 8 nM

B9: Compound 342 (peptide)
peptide: B2 peptide with L14X
modifications: Me-Tyr at 1; Aib at 2, 13, 17, 20; Iva at 6, 26; Lys(Eda-GGGGGG-) at 14; C-terminal amide (-NH2) (as printed for SEQ ID NO: 355 in the 1st table)
Human GLP-1R [8]
  Agonist activity (EC50, M): > 1e-06 M

B10: Compound 484 (peptide)
peptide: B2 peptide with L14X, A18H
modifications: N-terminal methyl (Me-Tyr); Aib at 2, 13, 17, 20; Iva at 6, 26; Lys(Oda-GGGGGG-) at 14; C-terminal NH2
Human GIPR [9]
  IC50: 10 nM
